Laboratory results: patent US9555139B2, “Binding ligand linked drug delivery conjugates of tubulysins” (Endocyte, Inc., priority 2007, dated 2017)

How the values were obtained:
[1] = Toxicity as measured by weight loss / organ evaluation in tumor-bearing mice; type: in vivo
Description: METHOD: Drug Toxicity determinations. Persistent drug toxicity was assessed by collecting blood via cardiac puncture and submitting the serum for independent analysis of blood urea nitrogen (BUN), creatinine, total protein, AST-SGOT, ALT-SGPT plus a standard hematological cell panel at Ani-Lytics, Inc. (Gaithersburg, Md.). In addition, histopathologic evaluation of formalin-fixed heart, lungs, liver, spleen, kidney, intestine, skeletal muscle and bone (tibia/fibula) were conducted by board-certified pathologists at Animal Reference Pathology Laboratories (ARUP; Salt Lake City, Utah).
METHOD: Toxicity as Measured by Weight Loss.

s.c. tumors = experiment: Inhibition of tumor growth in mice (tumor model not stated, FIG. 9 and 11); type: in vivo; settings: tolerable and highly toxic dose levels (0.1, 0.2, 0.5 μmol/kg TIW), dosing terminated early
Description: METHOD: Inhibition of Tumor Growth in Mice. Four to seven week-old mice (Balb/c or nu/nu strains) were purchased from Harlan Sprague Dawley, Inc. (Indianapolis, Ind.). Normal rodent chow contains a high concentration of folic acid (6 mg/kg chow); accordingly, mice used were maintained on the folate-free diet (Harlan diet #TD00434) for 1 week before tumor implantation to achieve serum folate concentrations close to the range of normal human serum. For tumor cell inoculation, 1×10^6 M109 cells (Balb/c strain) or 1×10^6 KB cells (nu/nu strain) in 100 μL were injected in the subcutis of the dorsal medial area. Tumors were measured in two perpendicular directions every 2-3 days using a caliper, and their volumes were calculated as 0.5×L×W^2, where L=measurement of longest axis in mm and W=measurement of axis perpendicular to L in mm. […] Dosing solutions were prepared fresh each day in PBS and administered through the lateral tail vein of the mice.

[2] = Serum binding, human serum; type: in vitro ADME
Description: (§1) METHOD: Serum binding against different species. Compounds are tested with 30K NMWL, subjected to Microcon filtration (10,000 g for 30 minutes), and compounds are detected by HPLC.

[3] = Body weight change of Balb/c mice at doses above therapeutic doses (FIG. 14); settings: intravenous, three times in one week (FIG. 14)
Description: METHOD: Toxicity as Measured by Weight Loss. The percentage weight change of the mice was determined in mice (5 mice/group) on selected days post-tumor inoculation (PTI), and graphed.
Each dose was administered three times, every other day, as indicated by the arrows. EC0305 was administered at (Δ) 2 μmol/kg TIW; (∇) 2.5 μmol/kg TIW; and (□) 3 μmol/kg.

[4] = Serum binding against different species; type: in vitro ADME; settings: human, dog, Balb/c mouse, rat, rabbit, fetal calf serum
Description: as §1

Human serum stability = type: in vitro ADME
Source text: METHOD: Human serum stability.

folate receptors (FRs) = biological target: T1, folate receptors (FRs) (Homo sapiens, UniProt P15328); experiment: Relative affinity assay (3H-folic acid displacement on KB cells); type: binding; settings: 10% serum/FDRPMI; folic acid set to 1
T1 construct: FR-positive KB cells were heavily seeded into 24-well cell culture plates; endogenous in cells; host or cells: KB cells
T1 sequence (P15328 25-234): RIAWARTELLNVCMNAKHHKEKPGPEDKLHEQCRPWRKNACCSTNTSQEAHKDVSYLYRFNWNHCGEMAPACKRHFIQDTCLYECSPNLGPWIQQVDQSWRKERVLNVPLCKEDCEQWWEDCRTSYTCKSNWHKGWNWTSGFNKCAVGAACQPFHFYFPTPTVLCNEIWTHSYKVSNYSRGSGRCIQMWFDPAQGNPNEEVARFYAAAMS
Description: METHOD: Relative Affinity Assay. The affinity for folate receptors (FRs) relative to folate was determined according to a previously described method (Westerhof, G. R., J. H. Schornagel, et al. (1995) Mol. Pharm. 48: 459-471) with slight modification. Briefly, FR-positive KB cells were heavily seeded into 24-well cell culture plates and allowed to adhere to the plastic for 18 h. Spent incubation media was replaced in designated wells with folate-free RPMI (FFRPMI) supplemented with 100 nM ^3H-folic acid in the absence and presence of increasing concentrations of test article or folic acid. Cells were incubated for 60 min at 37° C. and then rinsed 3 times with PBS, pH 7.4. Five hundred microliters of 1% SDS in PBS, pH 7.4, were added per well. Cell lysates were then collected and added to individual vials containing 5 mL of scintillation cocktail, and then counted for radioactivity. Negative control tubes contained only the ^3H-folic acid in FFRPMI (no competitor). Positive control tubes contained a final concentration of 1 mM folic acid, and CPMs measured in these samples (representing non-specific binding of label) were subtracted from all samples.

CCCC(=O)OCN(C(=O)[C@@H](NC(=O)[C@H]1CCCCN1C)C(C)CC)[C@H](C[C@@H](OC(C)=O)c1nc(C(=O)N[C@@H](Cc2ccc(O)cc2)C[C@H](C)C(=O)O)cs1)C(C)C (stereo partly drawn) [tubulysin B, reference compound]
toxicity (dosing terminated early in each cohort) ([1]; FIG. 9 and 10, 0.1, 0.2, 0.5 μmol/kg TIW): excessive toxicity | change in percent body weight ([1]; FIG. 10, 0.1, 0.2, 0.5 μmol/kg TIW, compared to controls): dramatic change | complete or partial responses (s.c. tumors): 0/5

CCCC(=O)OCN(C(=O)[C@@H](NC(=O)[C@H]1CCCCN1C)C(C)CC)[C@H](C[C@@H](OC(C)=O)c1nc(C(=O)N[C@@H](Cc2ccc(O)cc2)C[C@H](C)C(=O)NNC(=O)OCCSSC[C@H](NC(=O)[C@H](CC(=O)O)NC(=O)[C@H](CCCNC(=N)N)NC(=O)[C@H](CC(=O)O)NC(=O)CC[C@H](NC(=O)c2ccc(NCc3cnc4nc(N)[nH]c(=O)c4n3)cc2)C(=O)O)C(=O)O)cs1)C(C)C (stereo partly drawn) [EC0305]
fraction unbound [2]: 0.33 | serum binding [2]: 67% | dose at which toxicity begins, as determined by changes in weight [3]: ≥ 2.5 µmol/kg | serum binding in various species [4]: low serum binding | half-life (Human serum stability): ~20 h | weight loss or major organ tissue degeneration ([1]; Balb/c mice with M109 tumors (FIG. 8)): apparent absence of weight loss or major organ tissue degeneration | gross toxicity as determined by changes in weight ([1]; M109 tumor mice (FIG. 13), 2 μmol/kg TIW, 2 wks): not accompanied by any observed gross toxicity | weight loss or major organ tissue degeneration ([1]; nu/nu mice with KB tumors (FIG. 6)): apparent absence of weight loss or major organ tissue degeneration

Nc1nc2ncc(CNc3ccc(C(=O)N[C@@H](CCC(=O)O)C(=O)O)cc3)nc2c(=O)[nH]1 [folic acid]
relative affinity (folate receptors (FRs)): 1
